For this test, the target named is T1, TGF-β1 R1 (mouse, UniProt Q64729 30-503).
T1 construct: Endogenous protein in total cell extracts; It is seen only as part of the 102 Kda band on the anti-Smad7 Western blot; also called TGF-β1 receptor R1
T1 sequence (looked up): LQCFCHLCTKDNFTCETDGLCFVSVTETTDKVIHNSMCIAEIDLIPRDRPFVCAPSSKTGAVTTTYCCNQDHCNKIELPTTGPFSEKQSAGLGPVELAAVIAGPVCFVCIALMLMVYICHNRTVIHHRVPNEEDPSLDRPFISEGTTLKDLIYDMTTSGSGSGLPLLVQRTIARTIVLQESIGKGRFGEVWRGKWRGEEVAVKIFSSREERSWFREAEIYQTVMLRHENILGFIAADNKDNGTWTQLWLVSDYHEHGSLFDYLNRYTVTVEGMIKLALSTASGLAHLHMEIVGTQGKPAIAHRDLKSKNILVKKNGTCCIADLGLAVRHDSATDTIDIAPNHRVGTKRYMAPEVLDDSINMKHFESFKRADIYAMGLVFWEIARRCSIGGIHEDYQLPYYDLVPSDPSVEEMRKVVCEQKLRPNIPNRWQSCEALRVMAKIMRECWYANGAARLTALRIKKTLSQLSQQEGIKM
Nature of the test: Western blot of LPMC total protein extracts with anti-Smad7 antibody (FIG. 3).

B1: Smad7 (other, mouse, UniProt O35253 1-426, looked up)
chain: MFRTKRSALVRRLWRSRAPGGEDEEEGVGGGGGGGELRGEGATDGRAYGAGGGGAGRAGCCLGKAVRGAKGHHHPHPPTSGAGAAGGAEADLKALTHSVLKKLKERQLELLLQAVESRGGTRTACLLLPGRLDCRLGPGAPASAQPAQPPSSYSLPLLLCKVFRWPDLRHSSEVKRLCCCESYGKINPELVCCNPHHLSRLCELESPPPPYSRYPMDFLKPTAGCPDAVPSSAETGGTNYLAPGGLSDSQLLLEPGDRSHWCVVAYWEEKTRVGRLYCVQEPSLDIFYDLPQGNGFCLGQLNSDNKSQLVQKVRSKIGCGIQLTREVDGVWVYNRSSYPIFIKSATLDNPDSRTLLVHKVFPGFSIKAFDYEKAYSLQRPNDHEFMQQPWTGFTVQISFVKGWGQCYTRQFISSCPCWLEVIFNSR
notes: Endogenous protein in total cell extracts, detected by Western blot with a rabbit anti-human Smad7 antibody; also called free Smad7 (47 Kda band)
Consider B1, for which the binding result was “binds”.

The values are drawn from patent US20200325480A1 (NOGRA PHARMA, published 2020).
